{
  "source": "paper PMC6265302",
  "about": "“Widespread bacterial lysine degradation proceeding via glutarate and L-2-hydroxyglutarate” (Nature Communications, 2018)",
  "details_in_all_cases": "Filter binding: 50 mM Tris-HCl, 100 mM KCl, 50 mM NaCl, 5 mM MgCl2, pH 7.6, 15 min, footprint: 50 mM MOPS, 100 mM NaCl, 20 mM KCl, 2.5 mM MgCl2, 0.1 mM DTT",
  "key": {"[1]": {"molecular_target": "T1, CsiR (Escherichia coli BW25113 (K-12)) (UniProt P37338)", "T1 sequence": "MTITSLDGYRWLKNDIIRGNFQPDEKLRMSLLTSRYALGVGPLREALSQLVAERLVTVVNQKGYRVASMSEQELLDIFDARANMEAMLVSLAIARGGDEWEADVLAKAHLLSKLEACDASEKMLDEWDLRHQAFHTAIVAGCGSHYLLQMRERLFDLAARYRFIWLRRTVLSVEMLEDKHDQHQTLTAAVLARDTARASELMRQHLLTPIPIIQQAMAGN", "assay": "SPR"}, "[2]": {"molecular_target": "T1, CsiR (Escherichia coli BW25113 (K-12))", "assay": "hydroxyl radical footprinting"}, "[3]": {"system": "CsiR (Escherichia coli BW25113 (K-12))", "assay": "SPR"}},
  "note": "pKd: −log10 of the molar value.",
  "data": [
    {"substance": "CTTTTGTGCGCATTTTTCAGAAATGTAGATATTTTTAGATTATGGCTACGAAATGAG (double strand) [csiD 5'-UTR/promoter PCR product MS177/MS178]", "values": [
      {"measurement": "pKd", "setting": "[1]", "result": 8.00}
    ]},
    {"substance": "TATGAGATGTAGGGTGACATGGCGATGCTCATTTCGTAGCCATAATCTAAAAATATCTACATTTCTGAAAAATGCGCACAAAAGCGACATATTGTTTTCTTATTGTGATCAAAAGCAACA (double strand) [csiD promoter PCR product MS170/MS171]", "values": [
      {"measurement": "binding", "setting": "[2]", "result": "binds"}
    ]},
    {"substance": "csiD 5'-UTR/promoter PCR product MS177/MS178", "values": [
      {"measurement": "pKd", "setting": "[3]", "result": 8.00}
    ]}
  ]
}
